According to patent publication US20220380801A1, “TRIPARTITE SYSTEMS FOR PROTEIN DIMERIZATION AND METHODS OF USE” (priority 2019, published 2022):

Legend:
HCV NS3/4A PR (S139A) = HCV NS3/4A PR (S139A) (Hepatitis C virus subtype 1a, UniProt A8DG50, A1066T/I1043Q/I1044E/L1039E/L1040E/L1047Q/S1165A, form not given); assay: Biacore 8K binding kinetics of PRSIM binding molecules
Procedure: The scFv and Tn3 PRSIM binding molecules were covalently immobilised to a CM5 chip surface using standard amine coupling techniques at a concentration of 1 μg/ml in 10 mM sodium acetate pH 4.5.
The HCV NS3/4A PR (S139A), or BSA control, was diluted 1:4 (1.25-20 nM)±10 nM simeprevir in 10 mM Hepes pH 7.4, 150 mM NaCl, 0.05% Surfactant P20, 0.01% DMSO, ensuring constant simeprevir and DMSO concentration. The samples were flowed over the chip at 50 μl/min using single cycle kinetics, with 120 sec association and 600 sec dissociation. The chip surface was regenerated with two 20 sec pulses of 10 mM Glycine-HCl pH 3.0. The final sensorgrams were analysed using the Biacore 8K Evaluation Software and the affinity constant KD was determined using a 1:1 binding model. The same method was used for measuring the affinity of the HCV NS3/4A PR mutants for PRSIM_23 with minor deviations. The mutants were diluted 1:4 (2.5-40 nM)±simeprevir in 10 mM Hepes pH 7.4, 150 mM NaCl, 0.05% Surfactant P20, 0.08% DMSO, ensuring constant simeprevir and DMSO concentration. The samples were flowed over the chip at 50 μl/min using single cycle kinetics, with 180 sec association and 600 sec dissociation.

[1] = system: split Nanoluciferase (LgBiT/SmBiT) reconstitution in HEK293 cells; assay: Split NanoLuc reconstitution assay (NanoBiT); format: cell-based, human; details: 100 nM simeprevir over no simeprevir; LgBiT fused to the C-terminus of the PRSIM binding module
Procedure: The ability of the PRSIM binding molecules to promote dimerization of two proteins to which they are fused was assessed with the NanoBiT system (Promega) that measures the reconstitution of a split Nanoluciferase (NanoLuc) and the resultant luminescence upon supply of a live cell imaging Nano-Glo NanoLuc substrate (FIG. 8). In the NanoBiT system, one interaction partner is fused via a flexible linker to an 18 kDa fragment of NanoLuc termed LgBiT (for “large bit”) (SEQ ID NO: 16) and the other is fused via an equivalent linker to a 1.3 kDa peptide SmBiT (“small bit”) (SEQ ID NO: 17). LgBit and SmBiT have a low affinity (190 μM) for each other in the absence of interacting partners and will not reconstitute to form an active luciferase enzyme. Once fused to the interacting proteins of a CID and supplied with inducer, they will reconstitute, and luminescence can be measured. The NanoBiT system supplies two sets of control proteins fused to LgBiT and SmBiT: a set of constitutively interacting proteins PRKAR2A:PRKACA; and the FRB:FKBP12 pair whose dimerization can be induced with rapamycin.
To establish the optimal orientation of the HCV NS3/4A PR (S139A) and PRSIM components, constructs whereby HCV NS3/4A PR (S139A) was fused at either the N- or C-terminus to SmBiT (SEQ ID NOs: 18 and 19, respectively) and a parallel set of constructs for each PRSIM binding module fused to either the N- or C-terminus of LgBiT (SEQ ID NOS: 20-30 and 31-41, respectively). The NanoBiT kit (Promega) supplies a set of vectors enabling these constructs to be generated. DNA strings encoding HCV NS3/4A PR (S139A) and the PRSIM molecules were purchased from GeneArt and amplified via PCR with primers with extensions containing restriction sites compatible with the NanoBiT vectors and were cloned via Gibson assembly. All constructs were verified via Sanger sequencing of the entire coding sequence.
All NanoBiT screens were performed in adherent HEK293 cells cultured in 96-well plates. Cells enzymatically dissociated from a tissue culture flask were counted and plated at 2×10^4 cells/well in a white, opaque-bottomed 96-well plate (Costar 3917). The plates were incubated overnight at 37° C. with 5% CO2 to allow the cells to adhere. On day 2, plasmids were co-transfected with Lipofectamine LTX (ThermoFisher) at a final concentration of 100 ng/well (50 ng/plasmid, one encoding a SmBiT fusion, the other a LgBiT fusion). On day 3, wells were treated with 100 nM of the appropriate small molecule inducer (rapamycin (FRB:FKBP12) or simeprevir (HCV NS3/4A PR:PRSIM)) or vehicle control, and luminescence was quantified with an Envision plate reader immediately following addition of Nano-Glo Live Cell Substrate (Promega).

Molecule	Kd (HCV NS3/4A PR (S139A); 10 nM simeprevir present) [nM]	Rmax (HCV NS3/4A PR (S139A); 10 nM simeprevir present) [RUs]	ka (HCV NS3/4A PR (S139A); 10 nM simeprevir present) [M⁻¹ s⁻¹]	kd (HCV NS3/4A PR (S139A); 10 nM simeprevir present) [s⁻¹]	fold-change in luminescence [1] [fold]	Kd (HCV NS3/4A PR (S139A); ‘WT’ (S139A), 20 nM simeprevir) [nM]	Rmax (HCV NS3/4A PR (S139A); ‘WT’ (S139A), 20 nM simeprevir) [RUs]	ka (HCV NS3/4A PR (S139A); ‘WT’ (S139A), 20 nM simeprevir) [M⁻¹ s⁻¹]	kd (HCV NS3/4A PR (S139A); ‘WT’ (S139A), 20 nM simeprevir) [s⁻¹]
PRSIM_57: scFv specific for HCV NS3/4A PR (S139A):simeprevir complex, SEQ ID NO: 12 (protein, PRSIM_57) scFv: QVQLVQSGAEVKKPGSSVKVSCKASGGTFSSYAISWVRQAPGQGLEWMGGIIPIFGTANYAQKFQGRVTITADESTSTAYMELSSLRSEDTAVYYCARHTNYITVFDYWGQGTLVTVSSGGGGSGGGGSGGGGSAQSVLTQPPSASGTPGQRVTISCSGSSSNIGSNTVNWYQQLPGTAPKLLIYSNNQRPSGVPDRFSGSKSGTSASLAISGLQSEDEADYYCAAWDHHWEQVVFGGGTKLTVL	15	69.1	1.73e+07	0.26	14	–	–	–	–
PRSIM_23: Tn3 protein specific for HCV NS3/4A PR (S139A):simeprevir complex, SEQ ID NO: 5 (protein, PRSIM_23) RLDAPSQIEVKDVTDTTALITWVDPRYDDIWWFELTYGIKDVPGDRTTIKLYLNDPYYSIGNLKPDTEYEVSLISYTGDSYSRSGSNPAKITFKTGL	6.3	284	5.03e+06	0.0318	31	5.4	215	5.59e+09	31
PRSIM_33: Tn3 PRSIM binding molecule, SEQ ID NO: 7 (protein, PRSIM_33) RLDAPSQIEVKDVTDTTALITWYPPGRWYDDIWYFELTYGIKDVPGDRTTIKLARGDDVYSIGNLKPDTEYEVSLISWGPDRGDRAGSNPAKITFKTGL	–	171.9	3.65e+06	0.0303	9	–	–	–	–
PRSIM_04: scFv PRSIM binding molecule, SEQ ID NO: 11 (protein, PRSIM_04) scFv: QVQLVQSGAEVKKPGSSVKVSCKASGGTFSSYAISWVRQAPGQGLEWMGGIIPIFGTANYAQKFQGRVTITADESTSTAYMELSSLRSEDTAVYYCARGMAHFYQFDLWGQGTLVTVSSGGGGSGGGGSGGGGSAQSVLTQPPSASGTPGQRVTISCSGSSSNIGSNTVNWYQQLPGTAPKLLIYSNNQRPSGVPDRFSGSKSGTSASLAISGLQSEDEADYYCAAGDHDHEHVVFGGGTKLTVL	11.2	65.9	1.74e+07	0.195	–	–	–	–	–
PRSIM_67: scFv PRSIM binding molecule, SEQ ID NO: 13 (protein, PRSIM_67) scFv: EVQLVQSGAEVKKPGAAVRISCKTSGYVFTSYYVHWVRQAPGQGLEWMGVINPSGGNTNYAQKFQDRVTMTRDTSTTTVYMELSSLMFDDTAVYYCAKRDYGGPLANWGRGTLVTVSSGGGGSGGGGSGGGGSALSYELTQPPSVSEAPRQRVTISCSGSSSNIGNNAVNWYQQLPGKAPKLLIFYDDLLPSGVSDRFSGSKSGTSASLAISGLQSEDEADYYCAAWDDSLNGLVFGTGTKLTVL	11.5	19.3	1.97e+07	0.226	–	–	–	–	–
PRSIM_72: scFv PRSIM binding molecule, SEQ ID NO: 14 (protein, PRSIM_72) scFv: QVQLVQSGAEVKKPGSSVKVSCKASGGTFSSYAISWVRQAPGQGLEWMGGIIPIFGTANYAQKFQGRVTITADESTSTAYMELSSLRSEDTAVYYCARGMAHFYQFDLWGQGTLVTVSSGGGGSGGGGSGGGGSAQSVLTQPPSASGTPGQRVTISCSGSSSNIGSNTVNWYQQLPGTAPKLLIYSNNQRPSGVPDRFSGSKSGTSASLAISGLQSEDEADYYCAAGDHDHEHVVFGGGTKLTVL	1	33.4	1.18e+06	0.00118	–	–	–	–	–
PRSIM_75: scFv PRSIM binding molecule, SEQ ID NO: 15 (protein, PRSIM_75) scFv: EVQLVQSGAEVKKPGSSVKVSCKASGGSFNSYTLDWVRQAPGQGLEWMGGIIPVFGSPNYGQKFQGRVTITADESTSTAYMELSSLKSDDTAVYYCARGLVYQPLDSWGRGTLVTVSSGGGGSGGGGSGGGGSAQAVLTQPSSASGTPGQRVTISCSGSSSNIGSYTVNWYQQFPGTAPKLLIYSNTQRPSGVPDRFSGSKSGTSASLAISGLQSEDEADYYCAAWDDSLNGWVFGGGTKVTVL	0.3	88.8	9.09e+06	0.00267	–	–	–	–	–
